Experiment [1] concerns the target T1, human apical domain of CD71 (human, UniProt P02786 189-383, limits assumed).
T1 construct: domain: apical domain
Kind of experiment: primary ELISA. Also: test concentration or dose not given here. For orientation: An ELISA detects its analyte on a solid surface through an enzyme-linked reagent.

Experiment [2] concerns the target T2, human CD71 extracellular domain (human, UniProt P02786 89-760).
T2 construct: also called hCD71; CD71-ECD
Nature of the experiment: primary ELISA. Also: test concentration or dose not given here.

Experiment [3] deals with T1, human apical domain of CD71. Kind of experiment: primary ELISA; signal over HSA control. Also: test concentration or dose not given here.
Experiment [4] deals with T2, human CD71 extracellular domain. Kind of experiment: primary ELISA; signal over HSA control. Also: test concentration or dose not given here.
For experiment [5], the target named is T3, human CD71 extracellular domain (human, UniProt P02786 89-760, biotinylated).
T3 construct: also called hCD71; CD71-ECD
Kind of experiment: primary ELISA, RLU over HSA.

For experiment [6], the target named is T4, apical domain of human CD71 (human, UniProt P02786 189-383, limits assumed).
T4 construct: domain: apical domain; Screen 4 panned on human apical domains, the ELISA text says only 'apical domain'
Nature of the experiment: primary ELISA, RLU over HSA.

For experiment [7], the target named is T3, human CD71 extracellular domain. Kind of experiment: primary ELISA. Also: test concentration or dose not given here.
In experiment [8] the target is T4, apical domain of human CD71. Nature of the experiment: primary ELISA. Also: test concentration or dose not given here.

T2 sequence (P02786 89-760): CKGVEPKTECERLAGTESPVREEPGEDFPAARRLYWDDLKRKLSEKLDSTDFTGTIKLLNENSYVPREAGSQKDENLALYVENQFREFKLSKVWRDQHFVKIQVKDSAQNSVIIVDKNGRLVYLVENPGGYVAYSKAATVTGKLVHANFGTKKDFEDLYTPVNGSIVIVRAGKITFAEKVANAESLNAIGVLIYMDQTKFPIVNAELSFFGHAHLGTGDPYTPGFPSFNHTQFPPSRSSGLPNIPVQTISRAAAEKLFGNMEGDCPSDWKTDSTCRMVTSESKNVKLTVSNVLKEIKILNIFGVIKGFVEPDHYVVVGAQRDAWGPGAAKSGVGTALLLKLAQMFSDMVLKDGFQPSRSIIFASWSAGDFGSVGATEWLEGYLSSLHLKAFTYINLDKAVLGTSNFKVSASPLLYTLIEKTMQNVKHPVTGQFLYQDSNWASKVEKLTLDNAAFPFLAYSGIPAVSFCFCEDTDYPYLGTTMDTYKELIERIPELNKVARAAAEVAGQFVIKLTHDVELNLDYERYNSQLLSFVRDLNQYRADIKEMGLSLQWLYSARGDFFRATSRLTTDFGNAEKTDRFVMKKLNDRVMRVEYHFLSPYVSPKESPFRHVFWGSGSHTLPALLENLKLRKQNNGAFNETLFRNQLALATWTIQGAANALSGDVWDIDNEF
T3 sequence (P02786 89-760): as above
T1 sequence (P02786 189-383 limits assumed): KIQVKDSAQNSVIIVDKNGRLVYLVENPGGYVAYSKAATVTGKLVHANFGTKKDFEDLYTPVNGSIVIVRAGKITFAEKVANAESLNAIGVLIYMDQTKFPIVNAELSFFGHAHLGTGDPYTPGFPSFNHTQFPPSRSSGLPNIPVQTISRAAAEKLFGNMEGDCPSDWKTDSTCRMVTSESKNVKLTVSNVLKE
T4 sequence (P02786 189-383 limits assumed): as above

B1: CD71-binding FN3 domain SEQ ID NO 362 (designed binder)
chain: MLPAPKNLVVSRVTEDSARLSWTAPDAAFDSFEIAYWENNFNGEAIILIVPGSERSYDLTGLKPGTEYVVFISGVKGGTWSYPLVAQFTT
On to B1, for which the RLU was 4.86e+06 RLU in experiment [1] and 2.24e+06 RLU in experiment [2]. For the same molecule, the “Apical domain:HSA” value in experiment [3] came out at 102 ratio. Besides, the “hCD71:HSA” value in experiment [4] stood at 47 ratio.

B2: CD71-binding FN3 domain SEQ ID NO 402 (designed binder)
chain: MLPAPKNLVVSRVTEDSARLSWTAPDAAFDSFGIYYWEYTGGEAIVLTVPGSERSYDLTGLKPGTEYVVRILGVKGGAYSTPLSAIFTT
For the molecule B2, the RLU amounted to 4.77e+06 RLU in experiment [1] and 2.17e+06 RLU in experiment [2]. In addition, in experiment [3], the “Apical domain:HSA” value was 459 ratio. In experiment [4], the “hCD71:HSA” value is 209 ratio.

B3: CD71-binding FN3 domain SEQ ID NO 371 (designed binder)
chain: MLPAPKNLVVSRVTEDSARLSWTAPDAAFDSFDIDYVEFGWTGEAIALLVPGSERSYDLTGLKPGTEYWVWIGGVKGGDYSPPLNAYFTT
With B3, the RLU was found to be 4.4e+06 RLU in experiment [1] and 2.08e+06 RLU in experiment [2]. The “Apical domain:HSA” value in experiment [3] turned out to be 95 ratio. Also, the “hCD71:HSA” value in experiment [4] was 45 ratio.

B4: CD71-binding FN3 domain SEQ ID NO 379 (designed binder)
chain: MLPAPKNLVVSRVTEDSARLSWTAPDAAFDSFYIEYWEGYRSGEAIVLTVPGSERSYDLTGLKPGTEYRVHIWGVKGGAVSYPLSAIFTT
Turning to B4, the RLU in experiment [1] was determined as 5.13e+06 RLU; in experiment [2], 1.4e+06 RLU. The “Apical domain:HSA” value in experiment [3] came out at 239 ratio. The “hCD71:HSA” value in experiment [4] was 65 ratio.

B5: CD71-binding FN3 domain SEQ ID NO 370 (designed binder)
chain: MLPAPKNLVVSRVTEDSARLSWTAPDAAFDSFYIAYAEPRPDGEAIVLVVPGSERSYDLTGLKPGTEYSVLIHGVKGGLLSSPLSAHFTT
Consider B5, for which the RLU in experiment [1] was determined as 4.83e+06 RLU; in experiment [2], 2.13e+06 RLU. Also, in experiment [3], the “Apical domain:HSA” value is 480 ratio. Also, the “hCD71:HSA” value in experiment [4] stood at 212 ratio.

B6: CD71-binding FN3 domain SEQ ID NO 403 (designed binder)
chain: MLPAPKNLVVSRVTEDSARLSWTAPDAAFDSFYIAYAEPRPDGEAIVLDVPGSERSYDLTGLKPGTEYSVLIHGVKGGLLSSPLVADFTT
On to B6, for which the RLU in experiment [1] was 5.34e+06 RLU; in experiment [2], 3.64e+06 RLU. In experiment [3], the “Apical domain:HSA” value stood at 342 ratio. Also, in experiment [4], the “hCD71:HSA” value stood at 233 ratio.

B7: CD71-binding FN3 domain SEQ ID NO 386 (designed binder)
chain: MLPAPKNLVVSRVTEDSARLSWTAPDAAFDSFYIAYAEPRPDGEAITLLVPGSERSYDLTGLKPGTEYSVLIHGVKGGLLSSPLSAIFTT
For the molecule B7, the values for the RLU in experiment [1] and in experiment [2] were 3.96e+06 RLU and 1.28e+06 RLU, respectively. Also, the “Apical domain:HSA” value in experiment [3] was found to be 400 ratio. In experiment [4], the “hCD71:HSA” value amounted to 130 ratio.

B8: CD71-binding FN3 domain SEQ ID NO 374 (designed binder)
chain: MLPAPKNLVVSRVTEDSARLSWTAPDAAFDSFYIAYAEPRPDGEAIQLSVPGSERSYDLTGLKPGTEYSVLIHGVKGGLLSSPLHASFTT
As for B8, the RLU in experiment [1] stood at 3.64e+06 RLU; in experiment [2] it was 1e+06 RLU. Moreover, the “Apical domain:HSA” value in experiment [3] was found to be 277 ratio. Moreover, the “hCD71:HSA” value in experiment [4] worked out at 76 ratio.

B9: CD71-binding FN3 domain SEQ ID NO 367 (designed binder)
chain: MLPAPKNLVVSRVTEDSARLSWTAPDAAFDSFYIAYAEPRPDGEAILLVVPGSERSYDLTGLKPGTEYSVLIHGVKGGLLSSPLVAFFTT
With B9, the RLU in experiment [1] is 6.51e+06 RLU; in experiment [2], 4.62e+06 RLU. Further, the “Apical domain:HSA” value in experiment [3] was 66 ratio. For the same molecule, the “hCD71:HSA” value in experiment [4] came to 47 ratio.

B10: CD71-binding FN3 domain SEQ ID NO 359 (designed binder)
chain: MLPAPKNLVVSRVTEDSARLSWTAPDAAFDSFLIPYAETSPSGEAIVLTVPGSERSYDLTGLKPGTEYSVLIHGVKGGDYSSPLSAIFTT
As for B10, the results for the RLU in experiment [1] and in experiment [2] were 6.97e+06 RLU and 3.57e+06 RLU, respectively. In experiment [3], the “Apical domain:HSA” value is 233 ratio. In experiment [4], the “hCD71:HSA” value was found to be 120 ratio.

B11: CD71-binding FN3 domain SEQ ID NO 406 (designed binder)
chain: MLPAPKNLVVSRVTEDSARLSWTAPDAAFDSFFIDYDESLDSGEAIVLTVPGSERSYDLTGLKPGTEYNVTIQGVKGGFPSSPLEAAFTT
Regarding B11, the RLU was 3.68e+06 RLU in experiment [1] and 1.42e+06 RLU in experiment [2]. The “Apical domain:HSA” value in experiment [3] amounted to 478 ratio. The “hCD71:HSA” value in experiment [4] was 185 ratio.

B12: CD71-binding FN3 domain SEQ ID NO 440 (designed binder)
chain: MLPAPKNLVVSRVTEDSARLSWTAPDAAFDSFEIVYAEWTQHGEAIVLTVPGSERSYDLTGLKPGTEYYVHIGGVKGGKWSPPLYAIFTT
Consider B12, for which the values for the RLU in experiment [1] and in experiment [2] were 4.88e+06 RLU and 2.26e+06 RLU, respectively. Further, in experiment [3], the “Apical domain:HSA” value was 192 ratio. Moreover, the “hCD71:HSA” value in experiment [4] is 89 ratio.

B13: CD71-binding FN3 domain SEQ ID NO 442 (designed binder)
chain: MLPAPKNLVVSRVTEDSARLSWTAPDAAFDSFEIWYAEWRQVGEAIVLTVPGSERSYDLTGLKPGTEYNVDIHGVKGGKVSWPLSAISTT
Regarding B13, the RLU in experiment [1] turned out to be 6.23e+06 RLU; in experiment [2], 4.92e+06 RLU. The “Apical domain:HSA” value in experiment [3] stood at 217 ratio. In addition, the “hCD71:HSA” value in experiment [4] turned out to be 172 ratio.

B14: CD71-binding FN3 domain SEQ ID NO 444 (designed binder)
chain: MLPAPKNLVVSRVTEDSARLSWTAPDAAFDSFEIDYVEFIFTGEAIGLIVPGSERSYDLTGLKPGTKYWVTIAGVKGGEWSTPLQAFFTT
Regarding B14, the RLU was 5.12e+06 RLU in experiment [1] and 2.8e+06 RLU in experiment [2]. Also, the “Apical domain:HSA” value in experiment [3] was found to be 89 ratio. Also, the “hCD71:HSA” value in experiment [4] came to 48 ratio.

B15: CD71-binding FN3 domain of SEQ ID NO: 507 (designed binder)
chain: MLPAPKNLVVSRVTEDSARLSWTAPDAAFDSFFIGYLEPQPPGEAIHLLVPGSERSYDLTGLKPGTEYNVTIQGVKGGFPSMPLSAIFTT
Take B15: in experiment [5], the “hCD71:HSA” value was 178. Besides, in experiment [6], the “Apical domain:HSA” value turned out to be 245. Also, the RLU in experiment [7] was 3.52e+06 RLU; in experiment [8], 4.83e+06 RLU.

B16: CD71-binding FN3 domain of SEQ ID NO: 447 (designed binder)
chain: MLPAPKNLVVSRVTEDSARLSWTAPDAAFDSFFIGYLEPQPPGEAIYLYVPGSERSYDLTGLKPGTEYNVTIQGVKGGFPSYPLTAQFTT
As for B16, the “hCD71:HSA” value in experiment [5] amounted to 152. In addition, the “Apical domain:HSA” value in experiment [6] was found to be 136. The RLU in experiment [7] stood at 5.86e+06 RLU; in experiment [8], 5.25e+06 RLU.

B17: CD71-binding FN3 domain of SEQ ID NO: 446 (designed binder)
chain: MLPAPKNLVVSRVTEDSARLSWTAPDAAFDSFFIGYLEPQPPGEAIQLFVPGSERSYDLTGLKPGTEYNVTIQGVKGGFPSLPLIAYFTT
On to B17, for which, in experiment [5], the “hCD71:HSA” value turned out to be 37. Moreover, in experiment [6], the “Apical domain:HSA” value was determined as 42. Moreover, the RLU in experiment [7] is 4.75e+06 RLU; in experiment [8] it was 5.51e+06 RLU.

B18: CD71-binding FN3 domain of SEQ ID NO: 450 (designed binder)
chain: MLPAPKNLVVSRVTEDSARLSWTAPDAAFDSFFIGYLEPQPPGEAISLFVPGSERSYDLTGLKPGTEYNVTIQGVKGGFPSEPLAAKFTT
Turning to B18, the “hCD71:HSA” value in experiment [5] is 166. Further, in experiment [6], the “Apical domain:HSA” value was found to be 253. Besides, the RLU in experiment [7] was 4.1e+06 RLU; in experiment [8], 6.26e+06 RLU.

B19: CD71-binding FN3 domain of SEQ ID NO: 449 (designed binder)
chain: MLPAPKNLVVSRVTEDSARLSWTAPDAAFDSFYIAYQELSLWGEAIVLTVPGSERSYDLTGLKPGTEYNVTIQGVKGGFPSLPLAAQFTT
Take B19: the “hCD71:HSA” value in experiment [5] amounted to 69. Also, the “Apical domain:HSA” value in experiment [6] turned out to be 66. The RLU was 6.75e+06 RLU in experiment [7] and 6.51e+06 RLU in experiment [8].

B20: CD71-binding FN3 domain of SEQ ID NO: 451 (designed binder)
chain: MLPAPKNLVVSRVTEDSARLSWTAPDAAFDSFFIGYLEPQPPGEAIGLLVPGSERSYDLTGLKPGTEYNVTIQGVKGGFPSIPLVADFTT
As to B20, in experiment [5], the “hCD71:HSA” value was 129. Also, the “Apical domain:HSA” value in experiment [6] was found to be 151. Moreover, the figures for the RLU in experiment [7] and in experiment [8] were 5.23e+06 RLU and 6.08e+06 RLU, respectively.

B21: CD71-binding FN3 domain of SEQ ID NO: 448 (designed binder)
chain: MLPAPKNLVVSRVTEDSARLSWTAPDAAFDSFFIGYLEPQPPGEAIDLYVPGSERSYDLTGLKPGTEYNVTIQGVKGGFPSMPLYARFTT
In the case of B21, the “hCD71:HSA” value in experiment [5] came out at 74. Also, the “Apical domain:HSA” value in experiment [6] came out at 74. Also, the values for the RLU in experiment [7] and in experiment [8] were 4.73e+06 RLU and 4.76e+06 RLU, respectively.

B22: CD71-binding FN3 domain of SEQ ID NO: 452 (designed binder)
chain: MLPAPKNLVVSRVTEDSARLSWTAPDAAFDSFFIGYLEPQPPGEAIHLQVPGSERSYDLTGLKPGTEYNVTIQGVKGGFPSIPLVAQFTT
Consider B22, for which the “hCD71:HSA” value in experiment [5] was 88. The “Apical domain:HSA” value in experiment [6] was determined as 71. Further, the RLU worked out at 5.24e+06 RLU in experiment [7] and 4.23e+06 RLU in experiment [8].

B23: CD71-binding FN3 domain SEQ ID NO 397 (designed binder)
chain: MLPAPKNLVVSRVTEDSARLSWTAPDAAFDSFIILYGEAQYDGEAIVLTVPGSERSYDLTGLKPGTEYPVDIYGVKGGPYSWPLSAIFTT
On to B23, for which the RLU was 5.57e+06 RLU in experiment [1] and 1.65e+06 RLU in experiment [2]. The “Apical domain:HSA” value in experiment [3] amounted to 84 ratio. The “hCD71:HSA” value in experiment [4] amounted to 25 ratio.

B24: CD71-binding FN3 domain SEQ ID NO 384 (designed binder)
chain: MLPAPKNLVVSRVTEDSARLSWTAPDAAFDSFEIDYAENRHHGEAIALLVPGSERSYDLTGLKPGTEYIVFIGGVKGGRWSQPLVASFTT
In the case of B24, the RLU in experiment [1] stood at 5.55e+06 RLU; in experiment [2] it was 2.04e+06 RLU. Besides, in experiment [3], the “Apical domain:HSA” value was 57 ratio. Moreover, the “hCD71:HSA” value in experiment [4] came out at 21 ratio.

For the origin of these results see US20260151494A1 (ARO BIOTHERAPEUTICS, published 2026).
